According to the supplement of paper PMC7125110:
± gives the standard error. This sample holds only a part of the variants without activity.

B1: glmS ribozyme (parent)
chain: AUAAAAGCGCCAGAACUACAGAAAUGUAGUUGACGAGGAGGAGGUUUAUCGAAUUUUCGGCGGAUGCCUCCAAA

Columns and labels:
Conditions in all cases: with glucosamine-6-phosphate
glucosamine-6-phosphate [1] = variants of: B1; assay: self-cleavage kobs at 40 uM GlcN6P; higher = faster cleavage; RNA array
Outline: (§1)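 Tiles of sequenced MiSeq chips were imaged over ~14 h at 37 °C. On them, barcoded ribozyme variants had been transcribed in situ by E. coli RNA polymerase and were tracked via a hybridised Cy3 probe while glucosamine-6-phosphate (40 μM to 10 mM) in HEPES/KCl/Mg(OAc)2 buffer flowed in. Per-tile medians, normalised to baseline and to non-cleaving reference variants, were fit to one- or two-exponential decays for kobs, and weighted Michaelis–Menten fits gave kcat and KM.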

glucosamine-6-phosphate [2] = variants of: B1; assay: self-cleavage kobs at 10000 uM GlcN6P; higher = faster cleavage; RNA array
Outline: as §1

glucosamine-6-phosphate [3] = variants of: B1; assay: self-cleavage kobs at 640 uM GlcN6P; higher = faster cleavage; RNA array
Outline: as §1

glucosamine-6-phosphate [4] = variants of: B1; assay: self-cleavage kobs at 160 uM GlcN6P; higher = faster cleavage; RNA array
Outline: as §1

glucosamine-6-phosphate [5] = variants of: B1; assay: self-cleavage kobs at 2500 uM GlcN6P; higher = faster cleavage; RNA array
Outline: as §1

Variant | self-cleavage kobs at 40 uM GlcN6P (glucosamine-6-phosphate [1]) [s⁻¹] | self-cleavage kobs at 10000 uM GlcN6P (glucosamine-6-phosphate [2]) [s⁻¹] | self-cleavage kobs at 640 uM GlcN6P (glucosamine-6-phosphate [3]) [s⁻¹] | self-cleavage kobs at 160 uM GlcN6P (glucosamine-6-phosphate [4]) [s⁻¹] | self-cleavage kobs at 2500 uM GlcN6P (glucosamine-6-phosphate [5]) [s⁻¹]
G38U A42U U49A G60U | < 1e-05 | < 1e-05 | – | – | –
G37C G62C | < 1e-05 | < 1e-05 | < 1e-05 | – | –
G38A G40A | < 1e-05 | < 1e-05 | < 1e-05 | < 1e-05 | < 1e-05
G37C G41U G63C | < 1e-05 | – | – | – | –
A39G C50G C58A | 0.000142 ± 4.6e-05 | – | – | – | –
A39G C68U | 0.000529 ± 5e-05 | 0.0156 ± 0.003 | 0.00223 ± 0.0005 | 0.000783 ± 0.00025 | 0.00387 ± 0.0012
G37C G38A | < 1e-05 | < 1e-05 | – | < 1e-05 | –
C34U G40U C50U | < 1e-05 | < 1e-05 | < 1e-05 | – | –
G35C U45C C67G C68A | 0.00152 ± 0.00042 | 0.000566 ± 0.00018 | – | – | –
C34U G66U | < 1e-05 | < 1e-05 | – | < 1e-05 | –
G37C C50U G66U | < 1e-05 | < 1e-05 | – | – | –
A36C G41U U45G C67G | < 1e-05 | < 1e-05 | – | – | –
A39C G59C | < 1e-05 | < 1e-05 | < 1e-05 | < 1e-05 | < 1e-05
G37C A48U | < 1e-05 | < 1e-05 | – | – | –
G38U G59C | < 1e-05 | – | < 1e-05 | – | < 1e-05
G35U C50U C67G | 0.000272 ± 0.0001 | – | – | – | –
A36C U65A | < 1e-05 | – | < 1e-05 | – | < 1e-05
A36C U65C | < 1e-05 | < 1e-05 | – | < 1e-05 | < 1e-05
G38U A52U U57G A64G | < 1e-05 | < 1e-05 | – | – | –
G38U G66A U69G | 4.77e-05 ± 2e-05 | 4.02e-05 ± 1.6e-05 | – | – | –
G35A A48U C71U | < 1e-05 | – | – | – | –
G38C G44U C58U A64U | < 1e-05 | < 1e-05 | – | – | –
G37C U54A U55C G63C U69G | < 1e-05 | < 1e-05 | – | – | –
G35U G59C | < 1e-05 | < 1e-05 | < 1e-05 | < 1e-05 | < 1e-05

Variant | self-cleavage kobs at 40 uM GlcN6P (glucosamine-6-phosphate [1]) [s⁻¹] | self-cleavage kobs at 10000 uM GlcN6P (glucosamine-6-phosphate [2]) [s⁻¹] | self-cleavage kobs at 640 uM GlcN6P (glucosamine-6-phosphate [3]) [s⁻¹] | self-cleavage kobs at 160 uM GlcN6P (glucosamine-6-phosphate [4]) [s⁻¹] | self-cleavage kobs at 2500 uM GlcN6P (glucosamine-6-phosphate [5]) [s⁻¹]
G35A U46A | < 1e-05 | < 1e-05 | < 1e-05 | < 1e-05 | < 1e-05
G38U G41C | < 1e-05 | < 1e-05 | < 1e-05 | < 1e-05 | < 1e-05
G35A U57G | < 1e-05 | – | – | – | –
C34U G41A C68A | < 1e-05 | < 1e-05 | – | – | –
G37A G51C | < 1e-05 | < 1e-05 | < 1e-05 | < 1e-05 | < 1e-05
A39C C68G | < 1e-05 | < 1e-05 | – | – | –
G35A U45C C71U | < 1e-05 | < 1e-05 | – | – | < 1e-05
G37U G40C A64U | < 1e-05 | < 1e-05 | – | – | –
G35C C50A | < 1e-05 | < 1e-05 | < 1e-05 | < 1e-05 | < 1e-05
G37U A39G | < 1e-05 | – | – | – | < 1e-05
C34U A53G | < 1e-05 | < 1e-05 | – | – | –
A36C A42U | < 1e-05 | – | – | – | –
G37C A48U U57G | < 1e-05 | – | < 1e-05 | – | < 1e-05
C34U G35U | < 1e-05 | < 1e-05 | < 1e-05 | < 1e-05 | < 1e-05
C34U U56A | < 1e-05 | – | < 1e-05 | < 1e-05 | < 1e-05
G37C G41U U54G | < 1e-05 | – | – | – | –
G35A G41A | < 1e-05 | < 1e-05 | < 1e-05 | < 1e-05 | < 1e-05
G37A U56A | 1.92e-05 ± 6.8e-06 | 0.000962 ± 0.00011 | – | 4.84e-05 ± 1.8e-05 | –
G35C U46C | < 1e-05 | – | < 1e-05 | – | < 1e-05
G37A C50A G59A G66A | < 1e-05 | – | – | – | –
G35U C61A | < 1e-05 | < 1e-05 | < 1e-05 | – | < 1e-05
A36C G37A C58G | < 1e-05 | < 1e-05 | – | – | < 1e-05
G35C A42U | < 1e-05 | – | < 1e-05 | < 1e-05 | < 1e-05
G35U C61U U65G | < 1e-05 | – | – | – | –

Variant | self-cleavage kobs at 40 uM GlcN6P (glucosamine-6-phosphate [1]) [s⁻¹] | self-cleavage kobs at 10000 uM GlcN6P (glucosamine-6-phosphate [2]) [s⁻¹] | self-cleavage kobs at 640 uM GlcN6P (glucosamine-6-phosphate [3]) [s⁻¹] | self-cleavage kobs at 160 uM GlcN6P (glucosamine-6-phosphate [4]) [s⁻¹] | self-cleavage kobs at 2500 uM GlcN6P (glucosamine-6-phosphate [5]) [s⁻¹]
G37U G41C C70U | < 1e-05 | – | – | – | –
C34U C58G C68U | 0.000265 ± 9.2e-05 | 0.000425 ± 0.00014 | – | – | –
G38A C58U G59U | < 1e-05 | < 1e-05 | – | – | –
G35C A48G A52C C70G | < 1e-05 | – | – | – | –
G38A U57G | < 1e-05 | < 1e-05 | < 1e-05 | – | < 1e-05
G35A G44U U65A C70G | < 1e-05 | – | – | < 1e-05 | < 1e-05
G35U U46A C58U | < 1e-05 | < 1e-05 | – | < 1e-05 | < 1e-05
A36U U49G U65A | < 1e-05 | – | – | – | –
G38U A42C A53U | < 1e-05 | – | – | – | –
G35C G60A | < 1e-05 | < 1e-05 | < 1e-05 | – | –
G38C C58U | < 1e-05 | < 1e-05 | < 1e-05 | – | < 1e-05
C34U G40U C67G | < 1e-05 | < 1e-05 | – | – | < 1e-05
A36G A42U | < 1e-05 | < 1e-05 | < 1e-05 | < 1e-05 | –
G38A U45C | < 1e-05 | < 1e-05 | < 1e-05 | < 1e-05 | < 1e-05
C34U U57C C58U | < 1e-05 | < 1e-05 | – | – | < 1e-05
A36G C58U C70U | < 1e-05 | – | < 1e-05 | < 1e-05 | –
G35U G62A | < 1e-05 | < 1e-05 | < 1e-05 | < 1e-05 | < 1e-05
G38A G44C U47A | < 1e-05 | < 1e-05 | – | – | –
G37C G41U U46C | < 1e-05 | < 1e-05 | – | – | –
G35A C61G U65G C67A U69G | 6.66e-05 ± 2.3e-05 | – | – | – | –
G37U G40A G59U | < 1e-05 | < 1e-05 | – | – | < 1e-05
G37U A39U U45G G51A G59A | < 1e-05 | – | – | – | –
G35A U47A G51U | < 1e-05 | – | – | – | –
A36U C70A | 3.96e-05 ± 1e-05 | 2.74e-05 ± 7.6e-06 | 0.000143 ± 3.1e-05 | 4.33e-05 ± 1.3e-05 | –

Variant | self-cleavage kobs at 40 uM GlcN6P (glucosamine-6-phosphate [1]) [s⁻¹] | self-cleavage kobs at 10000 uM GlcN6P (glucosamine-6-phosphate [2]) [s⁻¹] | self-cleavage kobs at 640 uM GlcN6P (glucosamine-6-phosphate [3]) [s⁻¹] | self-cleavage kobs at 160 uM GlcN6P (glucosamine-6-phosphate [4]) [s⁻¹] | self-cleavage kobs at 2500 uM GlcN6P (glucosamine-6-phosphate [5]) [s⁻¹]
G37U G41C C67A | < 1e-05 | – | – | – | –
A39C A42G A64C C67G | < 1e-05 | < 1e-05 | – | – | –
A36C G41U G44C U55G U56C C61G | < 1e-05 | – | – | – | –
G35A A53C | < 1e-05 | < 1e-05 | < 1e-05 | < 1e-05 | –
C34U U55C | < 1e-05 | < 1e-05 | < 1e-05 | < 1e-05 | < 1e-05
G35U G38A | < 1e-05 | < 1e-05 | – | < 1e-05 | –
G35A A48C U55G | < 1e-05 | – | – | – | –
A36U U49C | < 1e-05 | < 1e-05 | < 1e-05 | < 1e-05 | –
G35U U54C U55A G59C | < 1e-05 | < 1e-05 | – | – | –
G38A A42U G44U A48G | < 1e-05 | – | – | – | –
A39C G60C C68U | < 1e-05 | – | < 1e-05 | < 1e-05 | –
G35U A48G | < 1e-05 | < 1e-05 | < 1e-05 | < 1e-05 | –
A36G A64U U65G | < 1e-05 | < 1e-05 | < 1e-05 | – | < 1e-05
G38A U46C A53C U54C C68A | < 1e-05 | < 1e-05 | – | – | –
A36G A39U G43C C61G | < 1e-05 | – | – | – | –
A39G C50U C58U | < 1e-05 | – | – | – | –
G37U G59U | < 1e-05 | – | < 1e-05 | – | –
G35A G51A | < 1e-05 | < 1e-05 | – | – | –
A36U U45C C50U | < 1e-05 | – | – | – | –
G35U A52C | < 1e-05 | < 1e-05 | – | – | –
C34U G40U | < 1e-05 | < 1e-05 | – | < 1e-05 | < 1e-05
G38C U56C | < 1e-05 | < 1e-05 | – | < 1e-05 | < 1e-05
A39C C50A | < 1e-05 | < 1e-05 | < 1e-05 | < 1e-05 | –
